Assay results reported in the supplement of paper PMC5998384.

Tests used:
HeLa Kyoto [1] = test: solubility change mitosis vs G1/S (difference of NP-40 vs SDS log2 ratios) (log2 ratio difference); higher = more soluble in mitosis
HeLa Kyoto [2] = test: thermal stability score vs G1/S (z-score of summed log2 fold changes over temperatures); higher = more thermally stable than in G1/S
HeLa Kyoto [3] = test: solubility in G1/S (NP-40 vs SDS abundance) (log2 ratio); higher = more soluble; details: cell cycle stage: G1/S
HeLa Kyoto [4] = test: melting temperature (median over replicates), in situ; higher = more thermally stable
[5] = cell cycle stage: early G1 (4.5 h after nocodazole release)
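Throughout, for melting temperature (median over replicates), in situ: HeLa Kyoto cells synchronized by double thymidine or nocodazole block, proteins quantified by TMT10plex mass spectrometry, three independent biological replicates.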
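Throughout, for solubility change mitosis vs G1/S (difference of NP-40 vs SDS log2 ratios): synchronized HeLa Kyoto cells (double thymidine block for G1/S, nocodazole release for mitosis), protein amounts in NP-40 versus SDS lysates quantified by mass spectrometry, three biological replicates.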
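Throughout, for solubility in G1/S (NP-40 vs SDS abundance): HeLa Kyoto cells arrested at G1/S by double thymidine block, proteins quantified by TMT10plex mass spectrometry in mild NP-40 versus SDS extracts, three biological replicates.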
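Throughout, for thermal stability score vs G1/S (z-score of summed log2 fold changes over temperatures): synchronized HeLa Kyoto cells, proteins quantified by TMT10plex mass spectrometry, three biological replicates, mitosis taken 0.5 h after nocodazole release, G1/S directly after double thymidine block.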

| Substance | solubility change mitosis (log2) (HeLa Kyoto [1]) | thermal stability score (HeLa Kyoto [2]; [5]) | thermal stability score (HeLa Kyoto [2]; cell cycle stage: mitosis) | solubility in G1/S (log2) (HeLa Kyoto [3]) | melting temperature (HeLa Kyoto [4]; cell cycle stage: G1/S) | melting temperature (HeLa Kyoto [4]; cell cycle stage: mitosis) |
| --- | --- | --- | --- | --- | --- | --- |
| MAAQSSLYNDDRNLLRIREKERRNQEAHQEKEAFPEKIPLFGEPYKTAKGDELSSRIQNMLGNYEEVKEFLSTKSHTHRLDASENRLGKPKYPLIPDKGSSIPSSSFHTSVHHQSIHTPASGPLSVGNISHNPKMAQPRTEPMPSLHAKSCGPPDSQHLTQDRLGQEGFGSSHHKKGDRRADGDHCASVTDSAPERELSPLISLPSPVPPLSPIHSNQQTLPRTQGSSKVHGSSNNSKGYCPAKSPKDLAVKVHDKETPQDSLVAPAQPPSQTFPPPSLPSKSVAMQQKPTAYVRPMDGQDQAPSESPELKPLPEDYRQQTFEKTDLKVPAKAKLTKLKMPSQSVEQTYSNEVHCVEEILKEMTHSWPPPLTAIHTPSTAEPSKFPFPTKDSQHVSSVTQNQKQYDTSSKTHSNSQQGTSSMLEDDLQLSDSEDSDSEQTPEKPPSSSAPPSAPQSLPEPVASAHSSSAESESTSDSDSSSDSESESSSSDSEENEPLETPAPEPEPPTTNKWQLDNWLTKVSQPAAPPEGPRSTEPPRRHPESKGSSDSATSQEHSESKDPPPKSSSKAPRAPPEAPHPGKRSCQKSPAQQEPPQRQTVGTKQPKKPVKASARAGSRTSLQGEREPGLLPYGSRDQTSKDKPKVKTKGRPRAAASNEPKPAVPPSSEKKKHKSSLPAPSKALSGPEPAKDNVEDRTPEHFALVPLTESQGPPHSGSGSRTSGCRQAVVVQEDSRKDRLPLPLRDTKLLSPLRDTPPPQSLMVKITLDLLSRIPQPPGKGSRQRKAEDKQPPAGKKHSSEKRSSDSSSKLAKKRKGEAERDCDNKKIRLEKEIKSQSSSSSSSHKESSKTKPSRPSSQSSKKEMLPPPPVSSSSQKPAKPALKRSRREADTCGQDPPKSASSTKSNHKDSSIPKQRRVEGKGSRSSSEHKGSSGDTANPFPVPSLPNGNSKPGKPQVKFDKQQADLHMREAKKMKQKAELMTDRVGKAFKYLEAVLSFIECGIATESESQSSKSAYSVYSETVDLIKFIMSLKSFSDATAPTQEKIFAVLCMRCQSILNMAMFRCKKDIAIKYSRTLNKHFESSSKVAQAPSPCIASTGTPSPLSPMPSPASSVGSQSSAGSVGSSGVAATISTPVTIQNMTSSYVTITSHVLTAFDLWEQAEALTRKNKEFFARLSTNVCTLALNSSLVDLVHYTRQGFQQLQELTKTP [AFF1] | 0.121 | 0.0483 | -0.483 | -0.222 | 49.6 °C | 51.8 °C |
| MNKLRQSFRRKKDVYVPEASRPHQWQTDEEGVRTGKCSFPVKYLGHVEVDESRGMHICEDAVKRLKAERKFFKGFFGKTGKKAVKAVLWVSADGLRVVDEKTKDLIVDQTIEKVSFCAPDRNFDRAFSYICRDGTTRRWICHCFMAVKDTGERLSHAVGCAFAACLERKQKREKECGVTATFDASRTTFTREGSFRVTTATEQAEREEIMKQMQDAKKAETDKIVVGSSVAPGNTAPSPSSPTSPTSDATTSLEMNNPHAIPRRHAPIEQLARQGSFRGFPALSQKMSPFKRQLSLRINELPSTMQRKTDFPIKNAVPEVEGEAESISSLCSQITNAFSTPEDPFSSAPMTKPVTVVAPQSPTFQANGTDSAFHVLAKPAHTALAPVAMPVRETNPWAHAPDAANKEIAATCSGTEWGQSSGAASPGLFQAGHRRTPSEADRWLEEVSKSVRAQQPQASAAPLQPVLQPPPPTAISQPASPFQGNAFLTSQPVPVGVVPALQPAFVPAQSYPVANGMPYPAPNVPVVGITPSQMVANVFGTAGHPQAAHPHQSPSLVRQQTFPHYEASSATTSPFFKPPAQHLNGSAAFNGVDDGRLASADRHTEVPTGTCPVDPFEAQWAALENKSKQRTNPSPTNPFSSDLQKTFEIEL [NUMB] | -0.132 | 0.0697 | 0.793 | -0.0586 | 51.9 °C | 51.4 °C |
| EPRS | -0.127 | -0.525 | 2.58 | -0.115 | 48.6 °C | 49 °C |
| MWAVLRLALRPCARASPAGPRAYHGDSVASLGTQPDLGSALYQENYKQMKALVNQLHERVEHIKLGGGEKARALHISRGKLLPRERIDNLIDPGSPFLELSQFAGYQLYDNEEVPGGGIITGIGRVSGVECMIIANDATVKGGAYYPVTVKKQLRAQEIAMQNRLPCIYLVDSGGAYLPRQADVFPDRDHFGRTFYNQAIMSSKNIAQIAVVMGSCTAGGAYVPAMADENIIVRKQGTIFLAGPPLVKAATGEEVSAEDLGGADLHCRKSGVSDHWALDDHHALHLTRKVVRNLNYQKKLDVTIEPSEEPLFPADELYGIVGANLKRSFDVREVIARIVDGSRFTEFKAFYGDTLVTGFARIFGYPVGIVGNNGVLFSESAKKGTHFVQLCCQRNIPLLFLQNITGFMVGREYEAEGIAKDGAKMVAAVACAQVPKITLIIGGSYGAGNYGMCGRAYSPRFLYIWPNARISVMGGEQAANVLATITKDQRAREGKQFSSADEAALKEPIIKKFEEEGNPYYSSARVWDDGIIDPADTRLVLGLSFSAALNAPIEKTDFGIFRM [MCCC2] | -0.128 | -3.15 | -2.72 | 0.0208 | 53.2 °C | 53.7 °C |
| MFRAAAPGQLRRAASLLRFQSTLVIAEHANDSLAPITLNTITAATRLGGEVSCLVAGTKCDKVAQDLCKVAGIAKVLVAQHDVYKGLLPEELTPLILATQKQFNYTHICAGASAFGKNLLPRVAAKLEVAPISDIIAIKSPDTFVRTIYAGNALCTVKCDEKVKVFSVRGTSFDAAATSGGSASSEKASSTSPVEISEWLDQKLTKSDRPELTGAKVVVSGGRGLKSGENFKLLYDLADQLHAAVGASRAAVDAGFVPNDMQVGQTGKIVAPELYIAVGISGAIQHLAGMKDSKTIVAINKDPEAPIFQVADYGIVADLFKVVPEMTEILKKK [ETFA] | -0.02 | -3.45 | -1.76 | 0.455 | 54.1 °C | 53.6 °C |
| MARAAALLPSRSPPTPLLWPLLLLLLLETGAQDVRVQVLPEVRGQLGGTVELPCHLLPPVPGLYISLVTWQRPDAPANHQNVAAFHPKMGPSFPSPKPGSERLSFVSAKQSTGQDTEAELQDATLALHGLTVEDEGNYTCEFATFPKGSVRGMTWLRVIAKPKNQAEAQKVTFSQDPTTVALCISKEGRPPARISWLSSLDWEAKETQVSGTLAGTVTVTSRFTLVPSGRADGVTVTCKVEHESFEEPALIPVTLSVRYPPEVSISGYDDNWYLGRTDATLSCDVRSNPEPTGYDWSTTSGTFPTSAVAQGSQLVIHAVDSLFNTTFVCTVTNAVGMGRAEQVIFVRETPNTAGAGATGGIIGGIIAAIIATAVAATGILICRQQRKEQTLQGAEEDEDLEGPPSYKPPTPKAKLEAQEMPSQLFTLGASEHSPLKTPYFDAGASCTEQEMPRYHELPTLEERSGPLHPGATSLGSPIPVPPGPPAVEDVSLDLEDEEGEEEEEYLDKINPIYDALSYSSPSDSYQGKGFVMSRAMYV [PVRL2] | 0.0111 | -2.1 | -3.87 | 0.108 | 56.9 °C | 55.4 °C |
| MPAESGKRFKPSKYVPVSAAAIFLVGATTLFFAFTCPGLSLYVSPAVPIYNAIMFLFVLANFSMATFMDPGIFPRAEEDEDKEDDFRAPLYKTVEIKGIQVRMKWCATCRFYRPPRCSHCSVCDNCVEEFDHHCPWVNNCIGRRNYRYFFLFLLSLTAHIMGVFGFGLLYVLYHIEELSGVRTAVTMAVMCVAGLFFIPVAGLTGFHVVLVARGRTTNEQVTGKFRGGVNPFTNGCCNNVSRVLCSSPAPRYLGRPKKEKTIVIRPPFLRPEVSDGQITVKIMDNGIQGELRRTKSKGSLEITESQSADAEPPPPPKPDLSRYTGLRTHLGLATNEDSSLLAKDSPPTPTMYKYRPGYSSSSTSAAMPHSSSAKLSRGDSLKEPTSIAESSRHPSYRSEPSLEPESFRSPTFGKSFHFDPLSSGSRSSSLKSAQGTGFELGQLQSIRSEGTTSTSYKSLANQTRNGSLSYDSLLTPSDSPDFESVQAGPEPDPPLGYTSPFLSARLAQQREAERHPRLVPTGPTHREPSPVRYDNLSRHIVASLQEREKLLRQSPPLPGREEEPGLGDSGIQSTPGSGHAPRTSSSSDDSKRSPLGKTPLGRPAVPRFGKPDGLRGRGVGSPEPGPTAPYLGRSMSYSSQKAQPGVSETEEVALQPLLTPKDEVQLKTTYSKSNGQPKSLGSASPGPGQPPLSSPTRGGVKKVSGVGGTTYEISV [ZDHHC5] | 0.124 | -2.84 | 1.5 | -0.172 | 59.1 °C | 62.7 °C |
| MADEGKSYSEHDDERVNFPQRKKKGRGPFRWKYGEGNRRSGRGGSGIRSSRLEEDDGDVAMSDAQDGPRVRYNPYTTRPNRRGDTWHDRDRIHVTVRRDRAPPERGGAGTSQDGTSKNWFKITIPYGRKYDKAWLLSMIQSKCSVPFTPIEFHYENTRAQFFVEDASTASALKAVNYKILDRENRRISIIINSSAPPHTILNELKPEQVEQLKLIMSKRYDGSQQALDLKGLRSDPDLVAQNIDVVLNRRSCMAATLRIIEENIPELLSLNLSNNRLYRLDDMSSIVQKAPNLKILNLSGNELKSERELDKIKGLKLEELWLDGNSLCDTFRDQSTYISAIRERFPKLLRLDGHELPPPIAFDVEAPTTLPPCKGSYFGTENLKSLVLHFLQQYYAIYDSGDRQGLLDAYHDGACCSLSIPFIPQNPARSSLAEYFKDSRNVKKLKDPTLRFRLLKHTRLNVVAFLNELPKTQHDVNSFVVDISAQTSTLLCFSVNGVFKEVDGKSRDSLRAFTRTFIAVPASNSGLCIVNDELFVRNASSEEIQRAFAMPAPTPSSSPVPTLSPEQQEMLQAFSTQSGMNLEWSQKCLQDNNWDYTRSAQAFTHLKAKGEIPEVAFMK [NXF1] | 0.533 | 1.64 | 4.14 | -0.89 | 47.3 °C | 49.1 °C |
| MEPRAVGVSKQDIREQIWGYMESQNLADFPRPVHHRIPNFKGSYLACQNIKDLDVFARTQEVKVDPDKPLEGVRLLVLQSKKTLLVPTPRLRTGLFNKITPPPGATKDILRKCATSQGVRNYSVPIGLDSRVLVDLVVVGSVAVSEKGWRIGKGEGYADLEYAMMVSMGAVSKETPVVTIVHDCQVVDIPEELVEEHDITVDYILTPTRVIATGCKRPKPMGITWFKISLEMMEKIPILRSLRAREQQAGKDVTLQGEHQHLPEPGCQQTVPLSVGRRPPDTPGPETNSMEAAPGSPPGEGAPLAADVYVGNLPGDARVSDLKRALRELGSVPLRLTWQGPRRRAFLHYPDSAAAQQAVSCLQGLRLGTDTLRVALARQQRDK [MTHFSD] | 0.0284 | -0.334 | -0.971 | -0.0248 | 54.7 °C | 53.5 °C |
| MAAAAGRSLLLLLSSRGGGGGGAGGCGALTAGCFPGLGVSRHRQQQHHRTVHQRIASWQNLGAVYCSTVVPSDDVTVVYQNGLPVISVRLPSRRERCQFTLKPISDSVGVFLRQLQEEDRGIDRVAIYSPDGVRVAASTGIDLLLLDDFKLVINDLTYHVRPPKRDLLSHENAATLNDVKTLVQQLYTTLCIEQHQLNKERELIERLEDLKEQLAPLEKVRIEISRKAEKRTTLVLWGGLAYMATQFGILARLTWWEYSWDIMEPVTYFITYGSAMAMYAYFVMTRQEYVYPEARDRQYLLFFHKGAKKSRFDLEKYNQLKDAIAQAEMDLKRLRDPLQVHLPLRQIGEKD [MCU] | -0.0872 | 0.0563 | -1.45 | 0.00831 | 53 °C | 52.9 °C |
| UTRN | -0.109 | 0.795 | 1.84 | 0.0106 | 49 °C | 48.5 °C |
